The values that follow come from the supplement of paper PMC9732359.

The nature of the data set: protein stability index of a GFP-peptide fusion (yeast GPS) (PSI 1-4); higher = more stable; sorted into four equal gates, so the index is relative within each strain. In short, it runs like this:
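Plasmids in a pooled yeast library fused tiled 17-residue yeast protein peptides downstream of GFP and also expressed Cherry. Mid-log cultures grown without leucine were sorted into four equal gates by GFP/Cherry fluorescence ratio. Each gate's plasmids were PCR-amplified and Illumina-sequenced, and reads were matched to strains by barcodes. The protein stability index is derived by multiplying each gate's read frequency by its gate number and summing the results.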

± gives the uncertainty stated by the source.

As to EPGVLNTGDGSISTYKD [ECM29], the protein stability index was 3.28 ± 0.15 (doa10∆) and 3.22 ± 0.15 (pdr5∆).

RKAYFTAPSSERRVLLS [RPL26B] displayed a protein stability index (doa10∆) of 1.45 ± 0.041, a protein stability index (pdr5∆) of 1.7 ± 0.051, a protein stability index (san1∆) of 2.49 ± 0.066 and a protein stability index (ubr1∆) of 1.66 ± 0.045.

KNQHRAASWYGSFNEMK [RMP1] showed a protein stability index (doa10∆) of 2.89 ± 0.048, a protein stability index (pdr5∆) of 3.21 ± 0.055, a protein stability index (san1∆) of 3.12 ± 0.042 and a protein stability index (ubr1∆) of 3.18 ± 0.038.

As to AIVFEEIKNWISDIPYV [YMR129W/POM152], the protein stability index (doa10∆) amounted to 1.36 ± 0.043, the protein stability index (pdr5∆) was determined as 1.42 ± 0.045, the protein stability index (san1∆) was determined as 1.36 ± 0.075 and the protein stability index (ubr1∆) was 1.72 ± 0.054.

Take EIGILDHVDGSSEFVSQ [RRP46]: the protein stability index was 1.69 ± 0.067 (doa10∆), 2.01 ± 0.059 (pdr5∆), 2.24 ± 0.065 (san1∆) and 2.5 ± 0.064 (ubr1∆).

With MSSTTPKLESVKWQYDP [SNF12], the protein stability index was 3.16 ± 0.065 (doa10∆), 3.25 ± 0.066 (pdr5∆), 3.09 ± 0.048 (san1∆) and 3.39 ± 0.062 (ubr1∆).

As for LRNNLNSLIEEINERSE [YCG1], the protein stability index was 3.13 ± 0.094 (doa10∆), 3.31 ± 0.095 (pdr5∆), 2.96 ± 0.075 (san1∆) and 3.01 ± 0.073 (ubr1∆).

Take TSQYGTPSTETAASVFK [PRE3]: the protein stability index runs as follows: (doa10∆) 1.71 ± 0.046; (pdr5∆) 2.29 ± 0.042; (san1∆) 2.1 ± 0.047; (ubr1∆) 2.27 ± 0.045.

Regarding TAASVFKELCYENKDNL [PRE3], the protein stability index (doa10∆) was determined as 2.67 ± 0.051, the protein stability index (pdr5∆) stood at 2.45 ± 0.047, the protein stability index (san1∆) came out at 2.38 ± 0.058 and the protein stability index (ubr1∆) is 2.17 ± 0.054.

As for PVDHPHGGGNHQHIGKA [RPL2A], the protein stability index turned out to be 3.11 ± 0.11 (doa10∆), 3.31 ± 0.085 (pdr5∆), 3.09 ± 0.051 (san1∆) and 3.22 ± 0.071 (ubr1∆).

Regarding SRSSVCVKAIEALFQSR [YCG1], the protein stability index was 3.14 ± 0.064 (doa10∆), 2.92 ± 0.085 (pdr5∆), 3.04 ± 0.077 (san1∆) and 2.97 ± 0.066 (ubr1∆).

Turning to NVTMIDDLIHFTLKQWN [COR1], the protein stability index amounted to 2.49 ± 0.14 (doa10∆), 2.89 ± 0.16 (pdr5∆), 2.79 ± 0.081 (san1∆) and 2.74 ± 0.099 (ubr1∆).

Consider KTKEAVAALKAVGAHSD [RPL4A], for which the protein stability index was found to be 3.47 ± 0.087 (doa10∆), 3.51 ± 0.067 (pdr5∆), 3.08 ± 0.096 (san1∆) and 3.38 ± 0.062 (ubr1∆).

In turn, VDSWDREFLKVDQEMLY [SKP1] came in with a protein stability index (doa10∆) of 3.43 ± 0.12, a protein stability index (pdr5∆) of 3.29 ± 0.078, a protein stability index (san1∆) of 3.21 ± 0.1 and a protein stability index (ubr1∆) of 3.26 ± 0.086.

On to VSLPEGSFKRVKPQYDE [BRR2], for which the protein stability index came to 3.16 ± 0.15 (doa10∆), 3.09 ± 0.12 (pdr5∆), 3.13 ± 0.11 (san1∆) and 2.95 ± 0.14 (ubr1∆).

In the case of LSSGESNEIKVTNDLDT [SIR4], the protein stability index by setting is: (doa10∆) 2.94 ± 0.16; (pdr5∆) 2.97 ± 0.12; (san1∆) 2.88 ± 0.22; (ubr1∆) 2.52 ± 0.08.

ESEQELSLHTGFIENCN [MTR3]: the protein stability index is, setting by setting: (doa10∆) 2.62 ± 0.067; (pdr5∆) 2.99 ± 0.067; (san1∆) 2.88 ± 0.063; (ubr1∆) 2.93 ± 0.053.

FGHLMHYGNEHIRRMVP [RPN1]: the protein stability index was 1.71 ± 0.042 (doa10∆), 1.82 ± 0.039 (pdr5∆), 1.6 ± 0.063 (san1∆) and 1.96 ± 0.034 (ubr1∆).

Consider NRTVLLKIFKIFCIDLE [SRB8], for which the protein stability index by setting is: (doa10∆) 1.94 ± 0.094; (pdr5∆) 2.15 ± 0.089; (san1∆) 1.89 ± 0.13; (ubr1∆) 2.3 ± 0.071.

RLHYYPKDPSNVETYEQ [BRR2]: the protein stability index reads like this: (doa10∆) 3.02 ± 0.11; (pdr5∆) 3.11 ± 0.23; (san1∆) 3.01 ± 0.24.

IRLANESSELNKDSIEE [CSN12]: the protein stability index stood at 3.22 ± 0.084 (doa10∆), 3.43 ± 0.079 (pdr5∆), 3.34 ± 0.065 (san1∆) and 3.37 ± 0.083 (ubr1∆).

With SELAGDEELEAEQIDVF [PRP8], the protein stability index reads like this: (doa10∆) 3.08 ± 0.2; (pdr5∆) 3.19 ± 0.2; (san1∆) 3.07 ± 0.16; (ubr1∆) 2.75 ± 0.18.

On to LQLTTNTEQGDSDELGG [SNM1], for which the protein stability index amounted to 3.25 ± 0.16 (doa10∆), 3.55 ± 0.29 (pdr5∆), 3.29 ± 0.11 (san1∆) and 3.09 ± 0.24 (ubr1∆).

For LQAFGESESTTNVYSKD [RPB3], the protein stability index is, setting by setting: (doa10∆) 2.08 ± 0.081; (pdr5∆) 2.1 ± 0.06; (san1∆) 1.68 ± 0.076; (ubr1∆) 1.72 ± 0.041.

Take IFALVFSSNERYFFWLQ [RPN13]: the protein stability index runs as follows: (doa10∆) 1.25 ± 0.046; (pdr5∆) 1.61 ± 0.07; (san1∆) 1.65 ± 0.08; (ubr1∆) 1.87 ± 0.046.

Consider QTTEGYDPKDALKNACN [RPB11], for which the protein stability index was found to be 3.28 ± 0.26 (doa10∆), 3.28 ± 0.14 (pdr5∆), 3.26 ± 0.082 (san1∆) and 3.35 ± 0.15 (ubr1∆).
